Laboratory results: the nanobody polyreactivity screen of Harvey et al. (2022)

Assay: yeast display, Sf9 membrane polyspecificity reagent, FACS + sequencing; frameworks hold sequencing errors
How it was run: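 A nanobody's polyreactivity label depends on the gate it was sorted from. Yeast display cells were stained with 10% biotinylated, detergent-solubilized Sf9 membrane reagent for 1 hour at 4 °C, enriched on streptavidin microbeads and sorted by FACS. The low and high (top ~1%) gates were set on anti-HA fluorescence for expression and streptavidin fluorescence for reagent binding.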

Sequence | polyreactivity (PSR sort gate)
QVQLVESGGGLVQAGGSLRLSCAASGLILSSNAMGWYRQAPGKERELVATISWSGDSTYYADSVKGRFTISRDNAKNTVYLQMNSLKPEDTAVYDCNADHFQWGAGYDYWGQGTQVTVSS | low polyreactivity
QVQLVESGGGLVQAGGSLRLSCAASGLILYHYAMGWYRQAPGKERELVAAISRSGGRTSYADSVKGRFTISRDNAKNTVYLQMNSLKPEDTAVFYCAAEKVGTRPSRDYDYWGQGTQVTVSS | high polyreactivity
QVQLVESGGGLVQAGGSLRLSCAASGLIRYTYAMGWYRQAPGKERELVAAINSGGRTYYADSVKGRFTISRDNAKNTVYLQMNSLKPEYTAVYSCAADYGSRVRGFNYWGQGTQVTVSS | low polyreactivity
QVQLVESGGGLVQAGGSLRLSCAASGLISESYAMGWYRQAPGKETELVAAISSGGSTYYADSVKGRFTISRDNAKNTVYLQMNSLNPEDTAVYFCNATGYKYNYGHAYYYAVDYWGQGTQVTVSS | low polyreactivity
QVQLVESGGGLVQAGGSLRLSCAASGLISHNNAMGWYRQAPGKEREFVAAITTTGSSTYYADSVKGRFTISRDNEKNTVYLQMNSLKPEDTAVYYCAAESVPSRSEMDYWGQGTQVTVSS | low polyreactivity
QVQLVESGGGLVQAGGSLRLSCAASGLISRRNAMGWYRQAPGKERELVAAISTGSSTNYADSVKGRFTISRDNAKNTVYLQMNSLKPEDTAVYYCAATQYWWSTLGIRDDYWGQGTQVTVSS | low polyreactivity
QVQLVESGGGLVQAGGSLRLSCAASGLIVQVYDMGWYRQAPGKEMELVAAISSGSNTNYADSVKGRFTISRDNAKNTVYLLMNSLKPEDTAVYYCAASWGYGALTPDMGYWGQGTQVTVSA | low polyreactivity
QVQLVESGGGLVQAGGSLRLSCAASGLIYTPYAMGWYRQAPGKERELVAAINYGGSRTYYADSVKGRFTISRDNAKNTVYLQMNSLKQEDTAVYYCNKPGNYVWRRSWDFDYWGQGTQVTVSW | high polyreactivity
QVQLVESGGGLVQAGGSLRLSCAASGLNFGRNAIGWYRQAPGKERELVAAISLSGGRTSYADSVKGRFTISRDNEQNTVYLQMNSVKPEDTAFYFCASRSDVYTHDYWGQGTQVTVSS | high polyreactivity
QVQLVESGGGLVQAGGSLRLSCAASGLNFSYYVMGWYRQAPGKERELVATITYSGGSTYYADSVKGRFTISRDNAKNTVYLQMNSLKPEDTAVYYFNADTGYVYSEYEYWGQGTQVTVSS | high polyreactivity
QVQLVESGGGLVQAGGSLRLSCAASGLPFYQYAMGWYRQAPGKERELVAGISSGGSTKYADSVKGRFTISRDNAKNTVYFQMNSLKPEDTAVYYCAARFYAFRKGYYYWGQGTQVTVSS | high polyreactivity
QVQLVESGGGLVQAGGSLRLSCAASGLSFLYAMGWYRHAPGKERELVAAISNGGSTYYADSVKGRFTISRDNAKNTDYLQMNSLKPEDTAVYYCAAAVTGSYASDYWGQGTQVTVSS | high polyreactivity
QVQLVESGGGLVQAGGSLRLSCAASGLSFSVYAMGWSRQAPGTERELVASIDLSGGNTYYADSVKGRFTISRDNAKNTVYLQMNSLKPEDTAVYYCAKYNPYYYSFSVWDGGDYWGQGTQVTVSS | low polyreactivity
QVQLVESGGGLVQAGGSLRLSCAASGLSFSVYAMGWYRQAPGKERELVAAITRNGGSTYYADSVKGRFTISRDTAKNTVYLQMNSLKPEDSAVYYCAAVASSKLYDYWGQGTQVTVSS | low polyreactivity
QVQLVESGGGLVQAGGSLRLSCAASGLSFTFGYAMGWYRQAPGKERELVASISSSGGNTYYADSVKGRFTISRDNAKNTVYLQMNSLKPEDTAVYYCAVYSHRRNMNYWGQGTQVTVSS | high polyreactivity
QVQLVESGGGLVQAGGSLRLSCAASGLTFAWNDMGWYRQAPGKERELVAAISIIGTTYYADSVKGRFTISRDNAKNTVYLQMNSLKREDTAVYYCAKTGFLGLRQYGYWGQGTQVTVSS | high polyreactivity
QVQLVESGGGLVQAGGSLRLSCAASGLTFAWYAMGWYRPAPGKERELVATITSGGSTNYADSVKGRFTISRDNAKNTVYLQMNSLKPEDTAVYYCNADYIYYGTTYEYWGQGTQVTVSS | low polyreactivity
